Measured values taken from PMC2082060.

Biological target: GST-endophilin I (recombinant) (UniProt O35179)
Assay: sequential GST pull-down, 32P autoradiography
Conditions: reference: total dynamin I of the lysate; sites S774,S778

dynamin I (from UniProt P21575) 32P-labelled phospho-dynamin I of same lysate
other: phospho/total bound dynamin I, % of AmphI-SH3 control: 91%
